Assay results taken from article PMC11063069.

Molecular target: His-tagged human CD47 protein (human) (UniProt Q08722)
Assay: pull-down

UniProt Q08722, sequence (Q08722 19-139): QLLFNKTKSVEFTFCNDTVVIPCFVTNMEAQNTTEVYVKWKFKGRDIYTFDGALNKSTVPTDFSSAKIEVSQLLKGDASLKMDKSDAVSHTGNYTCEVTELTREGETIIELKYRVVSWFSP

fibronectin-binding protein B (FnBP B) of S. aureus laboratory strain 8325-4 (from UniProt A0A0H2XKG3 37-940) (natural protein)
percent of bacterial colonies precipitated in the pellets with recombinant hCD47: 83.2%
